{"source": "patent US20190144517A1", "about": "(SHANGHAI JW INFLINHIX, published 2019)", "target": "T1, TNF receptors on L929 cells (mouse, UniProt P25118 30-454)", "T1 construct": "whole, on cells; The result text says 'TNF receptors'; the staining used an anti-TNFR1 antibody; also called cell surface receptors; TNFR1", "T1 sequence (looked up)": "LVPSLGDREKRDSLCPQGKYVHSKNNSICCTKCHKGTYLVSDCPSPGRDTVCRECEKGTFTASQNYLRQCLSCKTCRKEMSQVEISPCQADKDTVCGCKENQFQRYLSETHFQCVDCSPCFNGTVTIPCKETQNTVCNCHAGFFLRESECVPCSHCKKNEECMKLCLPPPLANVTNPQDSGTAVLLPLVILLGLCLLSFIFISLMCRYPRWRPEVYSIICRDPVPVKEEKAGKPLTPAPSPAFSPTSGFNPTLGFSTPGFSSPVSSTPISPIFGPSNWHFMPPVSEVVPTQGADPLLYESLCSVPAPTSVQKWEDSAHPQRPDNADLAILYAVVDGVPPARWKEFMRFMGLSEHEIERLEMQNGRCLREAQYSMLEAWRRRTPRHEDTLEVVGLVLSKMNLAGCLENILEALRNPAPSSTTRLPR", "experiment": "confocal immunofluorescence on L929 cells", "experimental": "The cells were fixed with 4% paraformaldehyde (PBS formulation) were for 10 minutes, blocked with phosphate buffer containing 0.5% BSA and 0.1% cold water fish gelatin for 15 minutes, and then incubated with rabbit anti-TNFR1 antibody (Abeam) for 1 hour. The cells were washed with PBS and then incubated with the relevant secondary antibody coupled to Alexa Fluor 488 or Alexa Fluor 568 (Invitrogen). Then the sample washed with PBS was mounted with Gelvatol/DABCO (Sigma-Aldrich). DNA was counterstained with DAPI (Sigma-Aldrich). All samples were analyzed by fluorescence microscopy at 60× using Nikon Eclipse 80i. Images were taken with NIS-Elements AR3.0 software using Hamamatsu camera.", "data": [{"binder": "monoclonal antibody 244-12 (antibody, mouse IgG2b, kappa, V domains shown, It was detected with an anti-mouse IgG secondary antibody) VH: QIQLVQSGPELKKPGETVKISCKASGYTFTNYGMNWVKQAPGKGLKWMGWINTYTGEPTYADDFKGRFAFSLETSANTAYLQINNLRNEGMATYFCARHYRYAWFPYWGQGTLVTVSA VL: DIQMTQSPASLSASVGETVTITCRASGNIHIYLAWYQQKQGKSPQLLVYNAKTLADGVPSRFSGSGSGTQYSLKINSLQPEDFGSYYCQHFWSIPWTFGGGTKLEIKR", "values": [{"measurement": "binding result", "result": "no binding (tested: 2 µg/ml)"}]}]}
